Results published in patent US20250340623A1 (AC IMMUNE, published 2025).
Substitutions are numbered along the chain they refer to. Where no end group is shown, it is not given here. The star is where a group is joined. Biotin = O=C1N[C@H]2[C@H](CS[C@H]2CCCCC(=O)*)N1; Ahx = NCCCCCC(=O)O

T1: 64-78aa
T1 construct: also called alpha-synuclein peptide 64-78
T1 peptide: {Biotin-Ahx}-TNVGGAVVTGVTAVA

T2: 82-96aa
T2 construct: also called alpha-synuclein peptide 82-96
T2 peptide: {Biotin-Ahx}-VEGAGSIAAATGFVK

T3: 118-132aa
T3 peptide: {Biotin-Ahx}-VDPDNEAYEMPSEEG

T4: 46-60aa
T4 construct: also called alpha-synuclein peptide 46-60
T4 peptide: {Biotin-Ahx}-EGVVHGVATVAEKTK

T5: 127-140aa
T5 peptide: {Biotin-Ahx}-MPSEEGYQDYEPEA

T6: 91-105aa
T6 peptide: {Biotin-Ahx}-ATGFVKKDQLGKNEE

T7: 1-14aa
T7 construct: also called alpha-synuclein peptide 1-14
T7 peptide: MDVFMKGLSKAKEG-biotin

T8: 1-15aa
T8 construct: also called alpha-synuclein peptide 1-15
T8 peptide: {Biotin-Ahx}-MDVFMKGLSKAKEGV

T9: 10-24aa
T9 construct: also called alpha-synuclein peptide 10-24
T9 peptide: {Biotin-Ahx}-KAKEGVVAAAEKTKQ

B1: ACI-7067-1113D10-Ab1 (antibody, V domains shown)
VH: EVQLVESGGGLVQPKGSLKLSCAASGFTFNTYALHWVRQAPGKGLEWVARIRSKSSNYATYYADSVKDRFTISRDDSQSMLYLQMNNLKTEDTGMYYCVRGGVSPFDYWGQGTTLTVSS
VL: QIVLTQSPAIMSASPGEKVTMTCSASSSVSYMHWYQQKSGTSPKRWIYDTSKLASGVPARFSGSGSGTSYSLTISSMEAEDSATYYCQQWSNNPPTFGGGTKLEIK
notes: mouse hybridoma mAb; VH/VL only; also called 1113D10E3D5
B2: ACI-7079-2605B3-Ab2 (antibody, V domains shown)
VH: EVQLVESGGGLVQPKGSLKLSCAASGFIFKTYAMHWVRQAPGKGLEWVARIRSKGGNYATYFADSVKDRFTISRDDSQNMLYLQVNNLKIEDTAMYFCVRGGNYSWFAYWGQGTLVTVSA
VL: B1 VL with S30T, K52Q, Y70H, A79T, S82A, S91T, N92R, E104A
notes: mouse hybridoma mAb; VH/VL only; also called 2605B3D1
B3: ACI-3112H1_1101C8 (bispecific antibody, V domains shown)
VH 1: EVQLQQSGPELVKPGASVKISCKASGYTFSDYFMNWVKQSHGKSLEWIGDINPNNGGSSYIQKFKGKATLTVDKSSTTAYMELRSLTSEDSAVYYCARGSNYAMDSWGQGTSVTVSS
VL 1: DIVMSQSPSSLAVSAGEKVTMSCKSSQSLLNSRTRKNYLAWYQQKPGQSPKLLIYWASTRESGVPDRFTGSGSGTDFTLTISSVQAEDLAVYYCKQSYDLWTFGGGTKLEIK
VH 2: EVQLVESGGGLVQPKGSLKLSCAASGFSFNIYAMNWVRQAPGKGLEWVARIRSKSNNYATYYADSVKDRFTISRADSESMLYLQMNNLKTEDTAMYYCVRVGLRFYAMDYWGQGTSVTVSS
VL 2: DVLMTQTPLSLPVSLGDQASISCRSSQSIVHSNGNTYLEWYLQKPGQSPKLLIYKVSNRFSGVPDRFSGSGSGTDFTLKISRVEAEDLGVYYCFQGSQGPLTFGAGTKLELK
B4: ACI-4F3_5A12 (bispecific antibody, V domains shown)
VH 1: EVQLQQSGPELVKPGASVKISCKASGYTFTDYYMNWVKQSHGKSLEWIGDINPNTGTNSYNQKFKGRASLTVDKFSSAAYMELRSLTSEDSAVYYCARTGYGDPISSYYYALDYWGQGTSVTVSS
VL 1: B3 VL 1 with D99N
VH 2: QVHLKQSGADLVRPGASVKLSCKASGYTFTDYYINWVKQRPGQGLEWIARIYPGSGNTYYNEKFKGRATLSAEKSSTTAYMQLSSLTSEDSAVYFCVVGYYGAWGQGTTLTVSS
VL 2: DVVMTQTPLSLPVSLGDQASISCRSSQSLVHSNGKTHLHWYLQKPGQSPKLLIYKVSNRFSGVPDRFSGSGSGTDFTLKISRVEAEDLGVYFCSQSTHVPWTFGGGTKLEIK
B5: Fab ACI-7067-1108B11-Ab2 (Fab, V domains shown)
VH: EVQLVESGGGLVQPKGSLKLSCAASGFTFNTYAMHWVRQAPGKGLEWVARIRSKGSNYATNYADSVKDRFTISRDDSQSMLYLQMNNLKTEDTAMYYCVRGHGSSYFSYWGQGTLVTVSA
VL: QIVLTQSPAIMSASPGERITMTCSANSSVTYMHWYQQKSGTSPKRWIYDTSNLASGVPARFSGSGSGTSYSLTISSMEAEDAATYYCQQWKSHPPTFGAGTKLELK
B6: ACI-1108B11_27D8 (bispecific antibody, V domains shown)
VH 1: B5 VH
VL 1: B5 VL
VH 2: EVQLVESGGGLVQPKGSLKLSCAASGFTFNTYAMNWVRQAPGKGLEWVARIRSKSNNFATYYADSVKDRFTISRDESESMLYLQMNNLKAEDTAMYYCVRSFDYWGQGTTLTVSS
VL 2: DIKMTQSPSSMYASLGERVTITCKASQDINSYLSWFQQKPGKSPKTLIYRAKRLVDGVPSRFSGSGSGQDYSLTISSLEYEDMGIYYCLQYDEFPFTFGSGTKLEIK
B7: ACI-7067-1106A8-Ab2 (antibody, V domains shown)
VH: B5 VH
VL: B5 VL with R18K, I19V, N26S, T30S, K91N
notes: mouse hybridoma mAb; VH/VL only; also called 1106A8H3
B8: ACI-7079-2603F3-Ab1 (antibody, V domains shown)
VH: B5 VH with N61Y, H102G, S104D, Y106W, S108A
VL: B1 VL with K18R, S24T, T68A, S71T, S82A, S91N, N92S, K102Q, E104A
notes: mouse hybridoma mAb; VH/VL only; also called 2603F3H3
B9: ACI-7067-1108B11-Ab2 (antibody, V domains shown)
VH: B5 VH
VL: B5 VL
notes: mouse hybridoma mAb; VH/VL only; also called 1108B11D3
B10: ACI-4301D5_3108C10 (bispecific antibody, V domains shown)
VH 1: QVQLQQSGPELVRPGASVKISCKASGYRFTSYYIHWVKQRPGQGLEWIGWIYPGSDNTKHNDKFKGKATLTADTSSSTAYMQLSSLTSEDSAVYFCARDYDVGFGYWGQGTLVTVSS
VL 1: not shown
VH 2: ELQLVESGGGLVRPGGSLKLSCATSGFTFRNYAMSWVRQTPAKRLEWVATISDGGTYTFYSDNVKGRFTISRDNVKNTLYLQMSHLKSEDTAMYYCSRAGSGHWGQGTTLTVSS
VL 2: not shown

Columns and labels:
alpha-synuclein seeds [1] = target: T10, alpha-synuclein seeds (UniProt P37840 1-140); test: cell-based or functional assay
64-78aa = target: T1, 64-78aa; test: indirect ELISA on biotinylated 15-mer peptide
Protocol: (§1) Serum-free supernatants were harvested from stable hybridomas. The supernatants containing antibodies of interest were then screened by an indirect ELISA assay to determine epitopes. Epitopes were first determined using a library of 15-mer peptides covering the entire sequence of human alpha-synuclein protein, spanning amino acids (aa) 1-140 with 9aa offset and […] overlap. […] Briefly, streptavidin-coated ELISA plates were blocked overnight at 4° C. […] Plates were washed with PBS/0.05% Tween®20 and then incubated with the hybridoma supernatants at 1/100 dilution for 1 hour at 25° C.

82-96aa = target: T2, 82-96aa; test: indirect ELISA on biotinylated 15-mer peptide
Protocol: as §1

118-132aa = target: T3, 118-132aa; test: indirect ELISA on biotinylated 15-mer peptide
Protocol: as §1

46-60aa = target: T4, 46-60aa; test: indirect ELISA on biotinylated 15-mer peptide
Protocol: as §1

127-140aa = target: T5, 127-140aa; test: indirect ELISA on biotinylated 15-mer peptide, supernatant 1/100
Protocol: as §1

91-105aa = target: T6, 91-105aa; test: indirect ELISA on biotinylated 15-mer peptide
Protocol: as §1

1-14aa = target: T7, 1-14aa; test: indirect ELISA on biotinylated 15-mer peptide
Protocol: as §1

1-15aa = target: T8, 1-15aa; test: indirect ELISA on biotinylated 15-mer peptide
Protocol: as §1

10-24aa = target: T9, 10-24aa; test: indirect ELISA on biotinylated 15-mer peptide
Protocol: as §1

alpha-synuclein seeds [2] = target: T10, alpha-synuclein seeds; test: cell-based or functional assay; remark: listed apart in the source
alpha-synuclein seeds [3] = target: T10, alpha-synuclein seeds; test: cell-based or functional assay; remark: listed apart in the source

| Binder | binding result (64-78aa) | binding result (82-96aa) | binding result (118-132aa) | binding result (46-60aa) | binding result (127-140aa) | IC50, percentage of de novo alpha-synuclein aggregates formed in cells after immunodepletion of seeds (alpha-synuclein seeds [2]) [nM] | other results |
| --- | --- | --- | --- | --- | --- | --- | --- |
| B1 | no binding (tested: supernatant 1/100) | no binding (tested: supernatant 1/100) | no binding (tested: supernatant 1/100) | no binding (tested: supernatant 1/100) | binds | – | aggregation half-time (τ1/2) of seeded alpha-synuclein aggregation, ThT; no antibody 26.9 hours (alpha-synuclein seeds [1]): 30.1 h |
| B2 | – | no binding (tested: supernatant 1/100) | no binding (tested: supernatant 1/100) | no binding (tested: supernatant 1/100) | binds | – | binding result (91-105aa): no binding (tested: supernatant 1/100); binding result (1-14aa): no binding (tested: supernatant 1/100); binding result (1-15aa): no binding (tested: supernatant 1/100); binding result (10-24aa): no binding (tested: supernatant 1/100) |
| B3 | – | – | – | – | – | 18 | – |
| B4 | – | – | – | – | – | 15.2 | – |
| B5 | – | – | – | – | – | – | aggregation half-time (τ1/2) of seeded alpha-synuclein aggregation, ThT; no antibody 18.0 hours (alpha-synuclein seeds [3]): 22.3 h |
| B6 | – | – | – | – | – | 8.6 | – |
| B7 | no binding (tested: supernatant 1/100) | no binding (tested: supernatant 1/100) | no binding (tested: supernatant 1/100) | no binding (tested: supernatant 1/100) | binds | – | – |
| B8 | – | no binding (tested: supernatant 1/100) | no binding (tested: supernatant 1/100) | no binding (tested: supernatant 1/100) | binds | – | binding result (91-105aa): no binding (tested: supernatant 1/100); binding result (1-14aa): no binding (tested: supernatant 1/100); binding result (1-15aa): no binding (tested: supernatant 1/100); binding result (10-24aa): no binding (tested: supernatant 1/100) |
| B9 | no binding (tested: supernatant 1/100) | no binding (tested: supernatant 1/100) | no binding (tested: supernatant 1/100) | no binding (tested: supernatant 1/100) | binds | – | aggregation half-time (τ1/2) of seeded alpha-synuclein aggregation, ThT; no antibody 26.9 hours (alpha-synuclein seeds [1]): 33.3 h |
| B10 | – | – | – | – | – | 21.6 | – |
